# B1: human transforming growth factor β2, mature growth-factor moiety (GF) (ligand, UniProt P61812 303-414, looked up)
# chain: ALDAAYCFRNVQDNCCLRPLYIDFKRDLGWKWIHEPKGYNANFCAGACPYLWSSDTQHSRVLSLYNTINPEASASPCCVSQDLEPLTILYYIGKTPKIEQLSNMIVKSCKCS
# notes: human TGFβ2 growth-factor moiety, residues A303-S414 of the precursor (UniProt P61812), 112 residues, released by cleavage at R302-A303; Disulfide-linked homodimer (intermolecular disulfide C379-C379); The crystals came from octahistidine-tagged pro-TGFβ2 mixed with methylamine-induced hα2M; they also grew from pro-TGFβ2 alone; also called mature TGFβ2; TGFβ2 GF; source: purified together with …
# Biological target: the molecule itself
# Assay: crystal structure; sitting-drop vapor diffusion, 20 °C, 20% isopropanol, 0.2 M calcium chloride, 0.1 M sodium acetate pH 4.6; space group P4(1)2(1)2, 2.0 Å; half a disulfide-linked dimer per asymmetric unit
protein,measurement,value
B1,stoichiometry N,2

# Reference: publication PMC6572864, “Recombinant production, purification, crystallization, and structure analysis of human transforming growth factor β2 in a new conformation” (Scientific Reports, 2019)
